According to IntAct's records for PubMed 15350535:

Molecular target: PAK1, Q13153-2
Sequence (Q13153 other isoform, or with tags, fused parts or gaps): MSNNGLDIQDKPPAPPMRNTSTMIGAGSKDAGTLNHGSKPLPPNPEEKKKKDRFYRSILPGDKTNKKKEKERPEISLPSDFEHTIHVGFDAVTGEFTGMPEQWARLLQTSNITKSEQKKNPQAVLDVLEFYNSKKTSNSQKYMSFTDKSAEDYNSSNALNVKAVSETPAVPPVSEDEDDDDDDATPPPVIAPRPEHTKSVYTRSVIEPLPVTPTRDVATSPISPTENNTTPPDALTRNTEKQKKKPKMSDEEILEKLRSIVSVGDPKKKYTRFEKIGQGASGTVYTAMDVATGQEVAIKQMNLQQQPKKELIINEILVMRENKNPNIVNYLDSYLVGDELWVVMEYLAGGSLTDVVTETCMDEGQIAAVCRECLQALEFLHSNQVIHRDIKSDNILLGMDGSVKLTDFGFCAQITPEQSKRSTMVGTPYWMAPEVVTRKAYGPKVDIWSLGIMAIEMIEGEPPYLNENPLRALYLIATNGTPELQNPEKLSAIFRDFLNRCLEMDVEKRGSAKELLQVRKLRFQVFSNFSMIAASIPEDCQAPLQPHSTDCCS

## Rho-related GTP-binding protein RhoU (Homo sapiens), Q7L0Q8 T63N
  effect of a mutation on the interaction: decreasing interaction
